Results from a protein production outcome set (Wang et al. 2014).

Assay: label from the status in PepcDB records

| Sequence | protein production |
| --- | --- |
| MAYSPSLNDIKSILNKYTSKDYELKCENRYDGKLELWLKGVFEEIVKTPGTRYVTHKQLDEKLKNFVTKTEFKEFQTVVMESFAVQNQNIDAQGEQIKELQVEQKAQGKTLQLILEALQGINKRLDNLESK | failed |
| MCAADHSREQVMRIGEVASRAGVSVRSVRYYEDQGLLASTRSAGGQRQYTEHEVERVQFLQRLYAAGLSSRTIAELLPCVDAPSEVHSDAALERMAQERDRLTEHIADLVRTRDALNALMTAAREYRDAQFA | failed |
| MCAPKRGRSQQFITTVIVCWRMASFSFRIEVRLSDAERRPTMRQQLFSTLTVLVALVGLSRAVVAQPMAIATLTPPELQELQRLVPRSAEDYYNLGLMHQGRGDLAAAIDAFSQAIKLNPSADYYFARGLAYYDQGDMQRAIADFTTALGDDPQFIAAYYNRGMAYLALQNYDAAIADFDAALARDPQFVAAYYSRGMAHFDRGNVELAQRDYERARALNPAMTAQYYDRAPRPLTGGP | failed |
| MCASKRSFFMSNSKFNVRLLTEIAFMAALAFIISLIPNTVYGWIIVEIACIPILILSFRRGLTAGLVGGLIWGILSMITGHAYILTLSQAFLEYLIAPVSLGIAGLFRQKTASLKLVPVLLGTFVAVLLKYFFHFIAGIIFWSQYAWKGWGAVAYSLAVNGISAILTAIAAFVILIIFVKKFPKLFIYSNY | failed |
| MCEGHTRNDPCERRHDPGARVRRKAGKIRSMILVFFSLCLGALIGALFRFPWYMLFLLAAIFWKRNKDISVVIFFTLLSASLYQIGTLPAGNYELVGYAERGRLKQVKVFQEEWKRIHPVRIETSEEGYVYAIGYFDGKAFHPSYLKKVEKPSLKTLKESFSGMANGTVLSVLFGEKNGDIYRSGLGHFFAVSGLHVGIAFSLYTTLLSFLTWRRTYQELTALLLLVPYVIAVGTPSVIRAYLTIFLWVAFKIFGFRTTPLHTTATVGSFMMIVDPTVVFTPSFLLSFFVTLCILESKNIFELTVKAYLSALPFLCLFFGGTNMSALVLSIPVSLLMIPVTWLAHLSFLLFLLGLKTSALIAAKITNIVSLPLNGFIKLANLLPEVPLPQYLYFILIFFPLLFLSPDIRDIFRKISGRAIL | failed |
| MCEKTAGDESGRRISRRAGNGEAGRLRSLSRLFDHFATAVTRWTGSPIAFSGACAAILAWASTGPLFGYSEVWQLVVNTGTTIVTFLMVFLIQQAQNKDSRALHVKLDELLVAVNGADVALAEAENLDDDRLLELADAYAARARRLVEHSTQRQRRDRGAEPEVGAARTRLARRPPGARARRHARLCWWQKQYARQRQGGDT | failed |
| MCGIVGANSTRNVTNILIEGLKKLEYRGYDSAGLAIIDDKNNIDICKEVGKVIELEKSVHNLANFKGDIGIAHTRWATHGKPSKNNSHPHASESFCIVHNGVIENFAELKKVLINDGYKFKSDTDTEVIAHLLQKEWRDNFSIVDNIKYIMAMLKGAYAVAIISQKFSDKIVAVRSGSPLVIGVGIDENFISSDALSLLPVTNKFSYLDEGDIAIISKDNVEVFDNNGAAKNLEVEEYNYSSSSASKDGYKHYMLKEIYEQPEAVSNTILASLADGEISLDSFDKRAKELFEKTKHICIVACGTSYNAGMTAKYWIEKYAKVPCSVEIASEIRYRDNVVVDGSLFVSISQSGETADTLESLRKSKKQNYVGSMCICNVPNSSLVRESDIAFMTKAGVEIGVASTKAFTTQLVALAIFTLVIAKLKNSLTDQQIAKYTEELKNIRALVMGALKLDTEIDQISEYFSDKEHTIFLGRGLYYPIAIEGALKLKEISYIHAEAYPSGELKHGPLALVDKNMPIVAVVPNDELLDKTLSNLQEVHARGGKLILFVDKAVKERVNFDNSIVLELDAGHDFSAPVVFTIPLQLLSYHVAIIKGTDVDQPRNLAKSVTVE | not failed |
| MCGVELDSLISQVKDLLPDLGEGFILACLEYYHYDPEQVINNILEERLAPTLSQLDRNLDREMN | not failed |
| MCIGFCIDRLDKGFLYTCHSTICRLVAQNMKKSLIHIGDGLGLSLLIEPTGSKSWRFRYRFGGKPKMISFGAYPLVSLAEARKKRDEARKQVLDGINPSEHRKAQKLNLMSESENTFETIAREWHTMKSVCWSVGYASDIMEAFRNDIFPYVGKRSIAEVKPLELLNVMRKMEKRGALEKMKKVRQRCSEVFRYAIATGRAEYNPAADLSSALEVHQSHHFPFLKADEIPDFLRALEGYTGSKLVRIATKLLLITGVRTIELRAALWSEFDLGNAIWEIPEERMKKRRAHLVPLSTQALDLLNELKIMTGNYRYVFPGRNNPNKPMSEASINQVIKRIGFGGEVTGHGFRHMLSTILHEEGFDSSFIEIQLAHVDRNSIRGTYNHAQYLEKRRHMMQYYSDYVIGKDF | failed |
| MCILGTTAKSLRLASVYGLSLFILFIVPLYLWQSTAAKMIAEVDWLDVATEGALFVLGMCWLMVIVSVRPSGRVTNLLIAGLSSYCLGCYLDLLDEIFIVKTLPIYNWFEKMPTPVGLLVLTGGLWLWRDEQTVVNRQLQTREQFHREHQLTDSLTLLNDAKAFEHHLVKQLSQNQSVGLLMLDVDYFHRYNKNQGVEEGDKLLSQLALWLSSTLRNQDLVCRYAGDRFVILLRGAIPSFVSVMAEQLQHGIKAFDCSATVVWTLPSPKMLPLQNSTCTAKEEAIALLQVLNQKMSQQKELRVSEAIAPSPFNTLDKSAASELN | failed |
| MCKHILGKGYVDGVIEADEVFFTESFKGTKPSNMPRRSRKIGKQVKKSGISKEQVCITTAIDRQGNLIMELACKGRITSKELEKLYDGHISNESILCTDSRKSYIQFANDLSLEHKRIKRGKHKEGLYHIQHINVLHSNLRKWMNRFNGAATKYISNYIKWFKWLQIFDTHKEIIKAKNFIVQSNVAHAYIKVKDLKYREPICV | failed |
| MCLCQLSRRKKRPDDSDTQSAPGAVQGTGADYSGAVTASAASTVTHPTVTRHVTASGARIYTIGIRAFEHLGVNVFLVVVGDPQQPSYTALIDAGSSFDFSQQGLLDGLKRVREEYGEAWSWETLSRLVITHPHPDHVGGLPFVRTLTAAPVAAHALAAAVIEEPGRRAEAFKLGADAMLARLGVPEGEYAARLRRRAGNLMSPSGVKVETALQDGDTLDGLFTVLHTPGHDGAQICLRLDEVLLSADHLLPHNSPPLMPGWMLPGSGLGPYLAALDHIETLEGVDLALGSHDEPMPDWRGRVDFLRRRYDDKLRGVLGAASEPQTIYALTCAVNPRLRAAQALLLLDQTAALVEELVVRGELHETREQAADGERWTYQRA | failed |
| MCLDACLTPDLADRDPVGRACDRAYVIDRPVFRSAMGNCRPSHFRGNGTHAAMNGESCAQRGKRTHKMQESEFFQLSGTTAVLLLVAFYGATFLMSLMIGQKKENVDGYMVSNSSVGFGLSAASMIATWIWAASFYASATSGFKYGLSGPIHYGFWGALMILFIYPFGKRFRQLAPKAHTLAEVIHARHGASSQMIMAVSNIVGSCISLMVNFTAAGALVSVLSPLSFIQGVLIAGLGVLSYTLWSGFRASVMTDFAQLVAMILAAVIIIPLIFFNAGGPDMLQANMWRLSSEQADFFSTTAILEQGAPYFVAVLAYAIGNQTIAQRLFAVREDLIKPTFLTATIGYGAVVIGLGMLGLLALFVGLEPVNGNMNNIIPQMASTYLPPVGIALFFILVVGSLSSTADSDLAALSAIVMTDIYAKNLAGGRPDPRRMLWWGRATMIVATMVGVIFASLRLDILVMLVFVGALWGAIVFPVIASFYWDRVSNSAFFWSVISAVVLFTIVRFELVPIEGAVAVFYEICAAIGGGVVIGLMSFAFFGRVTALTLGTLATLFLLPCFVGTLREYIVLLGSLTAYGVSTVVCVALSLRNQERFDFSLLAERVTSFHYEKARMMGAKPAAPAAQPQPARG | failed |
| MCLSIPSQVVAVDNERQSVTVDTLGVRRDVSSHLMTEPLAIGDYVLIHIGFVMNKIDRNDALQSLELYQEIVSKLENETTH | not failed |
| MCRSIRLTAMAAFLVIMGGAACSGKPVLPDLTLEGGDRSYSELITAQQHSFSIHTPSDAPLENSSIRIEVNEGESLTPRLRSSGSVDCSSLASVVAGVVAPGMTAEEKALALWRFVMDSCYHGRWGTSLDGLEHLNVYGYGYCGTYAAVLESLWWTAGLTARHVNIGNHAATEVYYNNDWHYIDADTRTYFLLKDNRTIASLDELNDNVELWTMLRRGSSRKAGKKYYYMTMHPNGHGRSPVYTNDFTMAKGDVLTLDWQSRGKWCLNRGQEGGKEPAGEPPFYGNGLFTFHRDFKDRSQSRSGLVSSTNIDWQDAAAGYLHPQHAKQEASLVYRVKTPYFIPETTLSGSFFRKGTGDSAAIDISTDNGKRWVSLWRADATGTVKASVVTAQTQQVTTDVPWKYSYLMRLRMRAGKSPRDVGAYHLDSASVLAYNPRCLPALRPGDNRITFSDGSQARRTVRVTYNWHDDLPITLSKETPFEGEEITVSARVTNRGAAEAHNVPVAVYLGNPAQGGVEIGRDTISRIPVGGTGLARVQWKATRKLAGRAANPGVPVYAVVDPDNRVAESDKANNVFSRIVKVLNPPDVRIPSESFIRFERAKDHSQSLAVVASVRNFSNSADYGLFLDDHGTGEAVEVTVYDGNPAKGGKVIGRETISRLLPLEHRNVSVKWDIAQLKGVHTVYVQVHPPANLTRAPGKRAPAAMAVPVDLDAYRSCKGI | failed |
| MCRVGLRAMVQERPVRVERRLSAILAADVAGYSRLMHNDEEATHAKLSALLTEAVQPAIAEHGGHIVKNTGDGFLAEFPSAVEAVRAAMQFQTSIHELTIGDVEDRRIAFRVGINIGDVIVEPHDIFGDGVNIAARLEGVAEPGGICISSSAYDQVQGKVGVEFGDLGEQNLKNIARPVRVYRMRPCNAATRPQASLLHRDTPQIGWFPNMFGGFPIRLWPALRARRARMALVIALLFVLSGGVAYWYMHQGEPQPLNHRLSIVVLPFTNLSNASEQEYFAEGITDDLSADLSRIEDSFVIAPSTARAYKNVDPKRVGRELGVRYILDGSLRRTDSLVRINARLIDARTGAEIWSERVDGDWSKSMQLQDIITGRLARRLDLELTNQESRDAEVMRPNNPDAVDLTMRGWAVLNQPYSREQLSQSRALFERALQIDPGFPKALVGLAETLAMEVNYRWTDAPADQLRRAESAVGQVLSKFPSDAMAHFVRGEIQRASGRNVEAAVGEYEAAIAINPSLAPAHGALGAAKIRVGRSAEAFAPLQMAIQLSPRDPLLSTWYFYIGHAHSHLGQYEGAIDWCGRSIAVQPLWIAYADLAAAHALTGHEREAYAAVAELRRLRPSYTVTEWLQDGKGWSDNAVFLAEFQRIADGLRKAGLPE | failed |
| MCSFFKKKLCIFFFILGNVVGWSSCVWGHLGSQYTIIGQSVISHSIDEIIQKQQQIIKILEQEIKNLQKDFANESANEYALAKVRLRARDINKRAIEAAFVLRNPLNDINVLLDQLKELQDEPKNLKERSHLIKKKAQINNMVLQFEEIFLATNKIVELSLSQSRELFKRTFKNRLEFSIPMLKYSVEKMKEASSDFLFLFSSWCKFVFHFKFLQLFLSFLVPLFVALGLSYFSRKVLAHVNCYFTKGNEEISYLQRLLVAFISILLPLLVCVVCVYLVFFLFHSFGMELGKLTTIFYTVGHQIILVFLINRLALVLLSLNMVHVRLFNITPFVAHQLVILLTFLGGILAFDAVLDSIYQVVSASLSLTIAKSFIAVFLFAILLFIISFVPLRFRRKSSQNEERETHFLPLYIRIPFIVLGLLLIVMDSLGYVGLAHFIMQQIVIGGAFLVLMYLGIKSAQVIGTKGQFMKTSVGHALMQWFHLEEKTMNKLGIVISVVLNLIVVILCAMPIAVQFGFSYSDLRRVLLQVMTGFQIGNISVSLISIVIGIIAFFACWFLNRRFICWLDGMVLVHGEFDSGVRNSIKTVISYAGVVVSALIGLSMAGLDLKNFALIAGGLSLGIGFGLQNIVQNFVSGLIILIGRPFKLGDYVEAGSVGGIVKRISVRATELETFQRKTIIIPNSSLINNNVSNWTRGSKMGRVDIPIVVSPNVAPERVVEILLEIASTTEGVLKNPAPQVSFTAFDSKKFSFSLAVYVPNITSSFKVTNALHFVLYKRFVQEGILEC | failed |
